In article PMC6751209:

Target: 53BP1 (UniProt Q12888)
Experiment: FLAG-53BP1 IP, Myc-PP4R3β immunoblot
Settings: reference: wild type, mitotic cells; sites S840

PP4R3β (from UniProt Q5MIZ7) S840A, mitotic cells
binding against the reference: weaker
